Experimental data taken from US20200354692A1.

Molecular target: NAD(P)+-dependent methanol dehydrogenase from Bacillus methanolicus MGA3 (Genbank EIJ77596.1, GI 387585261) (Bacillus methanolicus MGA3) (UniProt P31005)
Experiment: cell-based or functional assay

ratio of "act" to methanol dehydrogenase (in vitro activation test with 5 M methanol, 2 mM NAD, 10 uM methanol dehydrogenase 2315A, pH 7.4) (ratio act : methanol dehydrogenase): 10
Substance: activator protein from Bacillus methanolicus MGA3 (locus tag MGA3_09170, GI 387591061, Accession EIJ83380) (from UniProt Q8KP10 1-185) (enzyme)
